Measured values taken from paper PMC8228455, “Redox Regulation of the Quorum-sensing Transcription Factor AgrA by Coenzyme A”.

Biological target: T1, AgrA (6xHis-SaAgrA) (Staphylococcus aureus, UniProt Q5HEG2 1-238)
T1 sequence: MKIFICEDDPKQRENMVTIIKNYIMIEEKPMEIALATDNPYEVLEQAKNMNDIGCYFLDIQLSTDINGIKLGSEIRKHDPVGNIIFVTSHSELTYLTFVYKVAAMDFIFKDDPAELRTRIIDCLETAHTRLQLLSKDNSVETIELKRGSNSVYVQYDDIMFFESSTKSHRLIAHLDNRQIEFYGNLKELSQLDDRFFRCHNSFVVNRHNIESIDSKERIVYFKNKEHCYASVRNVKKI
Test: SPR; non-CoAlated; ka 5.75e3 1/Ms, kd 1.01e-2 1/s; SPR (Biacore 2000, SA chip, ~500 RU DNA): 20 mM HEPES pH 7.6, 250 mM KCl, 10% glycerol; 30 uL/min; temperature not stated; 1:1 Langmuir fit
Settings: protein: recombinant; tags: 6xHis; chain copies: 2; label: 5' biotin (immobilized on SA chip); blunt

B1: P2 promoter (dsDNA)
DNA 1: TAACAGTTAAGTATTTATTTCCTACAGTTAGGCA
DNA 2: TGCCTAACTGTAGGAAATAAATACTTAACTGTTA
  Kd: 1750 ± 580 nM
